Molecular target: Cry2 PHR (L348F)-p65AD-NLSx2 fusion construct as released from the TetR (I194T, 1-206)-CIB1 (-NLS)-T2A-Cry2 PHR (L348F)-p65AD-NLSx2 fusion construct
Experiment: cell-based or functional assay

Sequence of Cry2 PHR (L348F)-p65AD-NLSx2 fusion construct as released from the TetR (I194T, 1-206)-CIB1 (-NLS)-T2A-Cry2 PHR (L348F)-p65AD-NLSx2 fusion construct (Q96524 other isoform, or with tags, fused parts or gaps L348F I194T L348F L348F I194T L348F): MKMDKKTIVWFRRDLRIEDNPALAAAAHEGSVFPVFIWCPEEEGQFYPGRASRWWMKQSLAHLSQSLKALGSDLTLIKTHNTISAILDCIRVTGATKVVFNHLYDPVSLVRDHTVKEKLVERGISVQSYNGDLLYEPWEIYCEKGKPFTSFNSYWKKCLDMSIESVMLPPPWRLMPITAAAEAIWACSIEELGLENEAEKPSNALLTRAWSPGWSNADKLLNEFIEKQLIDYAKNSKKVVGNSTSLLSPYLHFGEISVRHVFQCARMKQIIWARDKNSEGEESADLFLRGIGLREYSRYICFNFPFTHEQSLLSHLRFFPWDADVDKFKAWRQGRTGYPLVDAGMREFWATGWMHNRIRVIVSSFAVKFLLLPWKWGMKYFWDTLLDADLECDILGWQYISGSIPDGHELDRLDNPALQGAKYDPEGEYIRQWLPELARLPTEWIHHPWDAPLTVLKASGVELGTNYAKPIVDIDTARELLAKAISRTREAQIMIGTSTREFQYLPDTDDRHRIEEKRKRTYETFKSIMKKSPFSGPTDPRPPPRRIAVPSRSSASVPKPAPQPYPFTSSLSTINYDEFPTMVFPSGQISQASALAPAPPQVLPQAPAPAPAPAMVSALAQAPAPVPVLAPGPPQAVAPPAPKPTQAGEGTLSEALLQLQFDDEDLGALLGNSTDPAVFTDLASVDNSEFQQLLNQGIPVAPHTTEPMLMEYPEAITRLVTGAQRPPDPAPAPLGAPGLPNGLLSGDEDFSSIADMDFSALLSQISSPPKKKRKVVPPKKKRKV

Row | Binder | Average of the Light/Dark ratio, Dox 0 ng/mL | Average of the Light/Dark ratio, Dox 0 ng/mL, 36 h light | Average of the Light/Dark ratio, Dox 75 ng/mL | Average of the Light/Dark ratio, Dox 500 ng/mL, 36 h light | Light/Dark, Dox 0 ng/mL | Light/Dark, Dox 0 ng/mL, 36 h light | Light/Dark, Dox 75 ng/mL | Light/Dark, Dox 500 ng/mL, 36 h light | Ub-ELuc luciferase, Dark, Dox 0 ng/mL [relative] | Ub-ELuc luciferase, Dark, Dox 0 ng/mL, 36 h light [relative]
1 | TetR (I194T, 1-206)-CIB1 (-NLS) fusion construct as released from the TetR (I194T, 1-206)-CIB1 (-NLS)-T2A-Cry2 PHR (L348F)-p65AD-NLSx2 fusion construct (protein, part only, residual T2A residues at C-terminus) MARLDKSKVINSALELLNEVGIEGLTTRKLAQKLGVEQPTLYWHVKNKRALLDALAIEMLDRHHTHFCPLEGESWQDFLRNNAKSFRCALLSHRDGAKVHLGTRPTEKQYETLENQLAFLCQQGFSLENALYALSAVGHFTLGCVLEDQEHQVAKEERETPTTDSMPPLLRQAIELFDHQGAEPAFLFGLELITCGLEKQLKCESGSPKKKHMEFNGAIGGDLLLNFPDMSVLERQRAHLKYLNPTFDSPLAGFFADSSMITGGEMDSYLSTAGLNLPMMYGETTVEGDSRLSISPETTLGTGNFKAAKFDTETKDCNEAAKKMTMNRDDLVEEGEEEKSKITEQNNGSTKSIKKMKHKAKKEENNFSNDSSKVTKELEKTDYI | 19 | 2780 | 1.1 | 0.2 | 36.2 | 525 | 0.9 | 0.2 | 4 | 15.4
2 | TetR (I194T, H100Y, 1-206)-CIB1 (-NLS) from the T2A construct (protein, part only, T2A residues at C-terminus) MARLDKSKVINSALELLNEVGIEGLTTRKLAQKLGVEQPTLYWHVKNKRALLDALAIEMLDRHHTHFCPLEGESWQDFLRNNAKSFRCALLSHRDGAKVYLGTRPTEKQYETLENQLAFLCQQGFSLENALYALSAVGHFTLGCVLEDQEHQVAKEERETPTTDSMPPLLRQAIELFDHQGAEPAFLFGLELITCGLEKQLKCESGSPKKKHMEFNGAIGGDLLLNFPDMSVLERQRAHLKYLNPTFDSPLAGFFADSSMITGGEMDSYLSTAGLNLPMMYGETTVEGDSRLSISPETTLGTGNFKAAKFDTETKDCNEAAKKMTMNRDDLVEEGEEEKSKITEQNNGSTKSIKKMKHKAKKEENNFSNDSSKVTKELEKTDYI | 19 |  | 19.4 |  | 30.6 |  | 22.7 |  | 2.6 | 
3 | rTetR (I194T, V16 mutation, 1-206)-CIB1 (-NLS) from the T2A construct (protein, part only; not given: Leftover T2A residues, part only) chain, part: MARLDKSKIINSALELLNGVGIEGLTTRKLAQKLGVEQPTLYWHVKNKRALLDALPIEMLDRHHTHSCPLEGESWQDFLRNNAKSYRCALLSHRDGAKVHLGTRPTEKQYETLENQLAFLCQQGFSLENALYALSAVGHFTLGCVLEEQEHQVAKEERETPTTDSMPPLLKQAIELFDRQGAEPAFLFGLELITCGLEKQLKCESGSPKKKHMEFNGAIGGDLLLNFPDMSVLERQRAHLKYLNPTFDSPLAGFFADSSMITGGEMDSYLSTAGLNLPMMYGETTVEGDSRLSISPETTLGTGNFKAAKFDTETKDCNEAAKKMTMNRDDLVEEGEEEKSKITEQNNGSTKSIKKMKHKAKKEENNFSNDSSKVTKELEKTDYI | 1.5 |  | 15.8 |  | 1.6 |  | 26.4 |  | 0.2 | 

Same assay, conditions: not given

Row | Binder | Ub-ELuc luciferase, Dark, Dox 75 ng/mL [relative] | Ub-ELuc luciferase, Dark, Dox 500 ng/mL, 36 h light [relative] | Ub-ELuc luciferase, Light, Dox 0 ng/mL [relative] | Ub-ELuc luciferase, Light, Dox 0 ng/mL, 36 h light [relative] | Ub-ELuc luciferase, Light, Dox 75 ng/mL [relative] | Ub-ELuc luciferase, Light, Dox 500 ng/mL, 36 h light [relative]
4 | TetR (I194T, 1-206)-CIB1 (-NLS) fusion construct as released from the TetR (I194T, 1-206)-CIB1 (-NLS)-T2A-Cry2 PHR (L348F)-p65AD-NLSx2 fusion construct (protein, part only, residual T2A residues at C-terminus) MARLDKSKVINSALELLNEVGIEGLTTRKLAQKLGVEQPTLYWHVKNKRALLDALAIEMLDRHHTHFCPLEGESWQDFLRNNAKSFRCALLSHRDGAKVHLGTRPTEKQYETLENQLAFLCQQGFSLENALYALSAVGHFTLGCVLEDQEHQVAKEERETPTTDSMPPLLRQAIELFDHQGAEPAFLFGLELITCGLEKQLKCESGSPKKKHMEFNGAIGGDLLLNFPDMSVLERQRAHLKYLNPTFDSPLAGFFADSSMITGGEMDSYLSTAGLNLPMMYGETTVEGDSRLSISPETTLGTGNFKAAKFDTETKDCNEAAKKMTMNRDDLVEEGEEEKSKITEQNNGSTKSIKKMKHKAKKEENNFSNDSSKVTKELEKTDYI | 0.1 | 9.9 | 76.7 | 8090 | 0.1 | 1.8
5 | TetR (I194T, H100Y, 1-206)-CIB1 (-NLS) from the T2A construct (protein, part only, T2A residues at C-terminus) MARLDKSKVINSALELLNEVGIEGLTTRKLAQKLGVEQPTLYWHVKNKRALLDALAIEMLDRHHTHFCPLEGESWQDFLRNNAKSFRCALLSHRDGAKVYLGTRPTEKQYETLENQLAFLCQQGFSLENALYALSAVGHFTLGCVLEDQEHQVAKEERETPTTDSMPPLLRQAIELFDHQGAEPAFLFGLELITCGLEKQLKCESGSPKKKHMEFNGAIGGDLLLNFPDMSVLERQRAHLKYLNPTFDSPLAGFFADSSMITGGEMDSYLSTAGLNLPMMYGETTVEGDSRLSISPETTLGTGNFKAAKFDTETKDCNEAAKKMTMNRDDLVEEGEEEKSKITEQNNGSTKSIKKMKHKAKKEENNFSNDSSKVTKELEKTDYI | 3.1 |  | 58.1 |  | 41.4 | 
6 | rTetR (I194T, V16 mutation, 1-206)-CIB1 (-NLS) from the T2A construct (protein, part only; not given: Leftover T2A residues, part only) chain, part: MARLDKSKIINSALELLNGVGIEGLTTRKLAQKLGVEQPTLYWHVKNKRALLDALPIEMLDRHHTHSCPLEGESWQDFLRNNAKSYRCALLSHRDGAKVHLGTRPTEKQYETLENQLAFLCQQGFSLENALYALSAVGHFTLGCVLEEQEHQVAKEERETPTTDSMPPLLKQAIELFDRQGAEPAFLFGLELITCGLEKQLKCESGSPKKKHMEFNGAIGGDLLLNFPDMSVLERQRAHLKYLNPTFDSPLAGFFADSSMITGGEMDSYLSTAGLNLPMMYGETTVEGDSRLSISPETTLGTGNFKAAKFDTETKDCNEAAKKMTMNRDDLVEEGEEEKSKITEQNNGSTKSIKKMKHKAKKEENNFSNDSSKVTKELEKTDYI | 5.9 |  | 0.3 |  | 76.7 | 
